T1: recombinant human EphB4-Fc fusion protein (human, UniProt P54760 16-539)
T1 construct: extracellular domain; also called hEphB4; hu EphB4-Fc
T1 sequence (looked up): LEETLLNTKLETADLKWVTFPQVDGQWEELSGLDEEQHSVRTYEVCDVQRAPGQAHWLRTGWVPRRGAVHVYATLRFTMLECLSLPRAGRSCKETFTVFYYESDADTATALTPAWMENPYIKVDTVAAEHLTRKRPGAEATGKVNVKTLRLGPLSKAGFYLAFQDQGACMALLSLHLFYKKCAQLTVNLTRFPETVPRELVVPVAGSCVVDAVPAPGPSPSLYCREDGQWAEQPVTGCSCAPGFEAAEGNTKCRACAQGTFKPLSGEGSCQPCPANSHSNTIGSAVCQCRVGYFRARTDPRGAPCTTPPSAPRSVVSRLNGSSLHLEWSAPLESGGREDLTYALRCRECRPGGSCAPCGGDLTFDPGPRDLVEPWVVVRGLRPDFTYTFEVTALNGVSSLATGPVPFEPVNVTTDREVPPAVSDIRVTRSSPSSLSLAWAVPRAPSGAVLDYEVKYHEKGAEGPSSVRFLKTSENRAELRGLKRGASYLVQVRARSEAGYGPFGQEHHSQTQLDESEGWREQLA

T2: myc-tagged human EphB4 on transfected CHO cells (human, UniProt P54760 16-987)
T2 construct: whole, on cells; also called CHO-EphB4; CHO-hEphB4; not shown: myc tag
T2 sequence (looked up): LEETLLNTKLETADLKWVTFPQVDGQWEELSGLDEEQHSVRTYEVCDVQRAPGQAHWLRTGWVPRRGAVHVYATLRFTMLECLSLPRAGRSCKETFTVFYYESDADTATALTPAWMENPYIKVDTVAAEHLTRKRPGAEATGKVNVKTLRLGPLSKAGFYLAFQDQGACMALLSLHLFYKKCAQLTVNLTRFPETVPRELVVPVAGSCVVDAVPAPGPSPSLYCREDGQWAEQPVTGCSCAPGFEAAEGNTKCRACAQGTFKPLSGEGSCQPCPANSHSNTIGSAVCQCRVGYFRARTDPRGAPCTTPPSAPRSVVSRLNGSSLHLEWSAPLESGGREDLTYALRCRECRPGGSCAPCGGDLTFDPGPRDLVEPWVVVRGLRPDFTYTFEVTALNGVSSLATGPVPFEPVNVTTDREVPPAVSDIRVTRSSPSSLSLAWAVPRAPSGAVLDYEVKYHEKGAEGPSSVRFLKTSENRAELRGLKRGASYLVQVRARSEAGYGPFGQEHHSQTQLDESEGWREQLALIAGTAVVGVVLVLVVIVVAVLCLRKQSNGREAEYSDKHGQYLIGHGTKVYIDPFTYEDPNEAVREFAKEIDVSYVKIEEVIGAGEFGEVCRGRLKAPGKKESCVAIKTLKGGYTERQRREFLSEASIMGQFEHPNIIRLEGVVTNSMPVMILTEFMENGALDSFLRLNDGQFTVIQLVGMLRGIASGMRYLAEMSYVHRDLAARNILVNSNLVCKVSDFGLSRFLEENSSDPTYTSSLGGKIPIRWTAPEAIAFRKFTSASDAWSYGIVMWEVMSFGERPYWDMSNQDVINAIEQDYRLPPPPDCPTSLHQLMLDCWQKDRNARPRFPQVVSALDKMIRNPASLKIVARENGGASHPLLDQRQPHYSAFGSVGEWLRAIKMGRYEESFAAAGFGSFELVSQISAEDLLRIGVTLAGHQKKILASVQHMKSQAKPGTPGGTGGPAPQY

T3: recombinant murine EphB4-Fc fusion protein (mouse, UniProt P54761 16-539)
T3 construct: extracellular domain; also called mEphB4; mu EphB4; not shown: Fc part, not described
T3 sequence (looked up): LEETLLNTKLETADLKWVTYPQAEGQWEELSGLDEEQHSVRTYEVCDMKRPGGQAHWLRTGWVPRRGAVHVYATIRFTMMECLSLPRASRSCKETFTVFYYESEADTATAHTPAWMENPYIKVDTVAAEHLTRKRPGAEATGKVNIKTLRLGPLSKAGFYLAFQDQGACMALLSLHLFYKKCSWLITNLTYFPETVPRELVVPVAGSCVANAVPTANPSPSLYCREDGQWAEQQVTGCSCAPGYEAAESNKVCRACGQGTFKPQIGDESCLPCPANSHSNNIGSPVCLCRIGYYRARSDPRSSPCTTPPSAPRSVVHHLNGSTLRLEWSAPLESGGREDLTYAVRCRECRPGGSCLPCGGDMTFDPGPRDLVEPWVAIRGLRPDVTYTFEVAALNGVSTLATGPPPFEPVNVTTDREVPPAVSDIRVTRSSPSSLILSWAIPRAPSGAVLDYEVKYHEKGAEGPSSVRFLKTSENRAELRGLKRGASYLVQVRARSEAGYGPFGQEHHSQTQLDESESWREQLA


Tests used:
[1] = target: T1, recombinant human EphB4-Fc fusion …; experiment: competition ELISA on coated hEphB4, competitor biotinylated mEphrinB2 250 ng/mL
Procedure: A 96-well plate was coated with recombinant hEphB4 in PBS o/n at 4° C. (5 μg/mL; 100 μL/well). The next day, the antigen was discarded and the plate blocked with 3% BSA/PBS (300 μl/well) for 2 hrs at room temperature (RT). Blocking solution was discarded and anti-EphB4 Fabs were added to the wells at different concentrations in 1% BSA/PBS and incubated for 30 min at RT. Recombinant biotinylated murine EphrinB2 was added at a final concentration of 250 ng/mL and incubated at RT for a further 30 min. The plate was washed and bound EphrinB2 was detected with Streptavidin-HRP (incubation 30 min at RT) and chemifluorescent substrate.

[2] = target: T2, myc-tagged human EphB4 on transfected …; experiment: FACS titration on CHO-EphB4 cells
[3] = target: T2, myc-tagged human EphB4 on transfected …; experiment: FACS, inhibition of murine ephrin-B2 binding to CHO-EphB4 cells
Procedure: CHO-EphB4 cells were preincubated with matured Fab at different concentrations followed by addition of the ligand, murine ephrin-B2 (extracellular domain, 98% identity to human Ephrin-B2). Receptor-bound ephrin-B2 was then detected via biotinylated anti-mouse ephrin-B2 antibody (R&D Systems) and streptavidin-PE. […] The MOR07310 derivatives perform slightly better than the MOR03641 derivatives. The IC50 values of the x-cloned binders are in the same range as those of their cloning parentals.

[4] = target: T4, recombinant mouse EphA4-Fc fusion protein (mouse, UniProt Q03137 20-547, limits assumed); experiment: ELISA, well P15 [part 2]
T4 construct: also called mEphA4; not shown: Fc part, not described
T4 sequence (Q03137 20-547 limits assumed): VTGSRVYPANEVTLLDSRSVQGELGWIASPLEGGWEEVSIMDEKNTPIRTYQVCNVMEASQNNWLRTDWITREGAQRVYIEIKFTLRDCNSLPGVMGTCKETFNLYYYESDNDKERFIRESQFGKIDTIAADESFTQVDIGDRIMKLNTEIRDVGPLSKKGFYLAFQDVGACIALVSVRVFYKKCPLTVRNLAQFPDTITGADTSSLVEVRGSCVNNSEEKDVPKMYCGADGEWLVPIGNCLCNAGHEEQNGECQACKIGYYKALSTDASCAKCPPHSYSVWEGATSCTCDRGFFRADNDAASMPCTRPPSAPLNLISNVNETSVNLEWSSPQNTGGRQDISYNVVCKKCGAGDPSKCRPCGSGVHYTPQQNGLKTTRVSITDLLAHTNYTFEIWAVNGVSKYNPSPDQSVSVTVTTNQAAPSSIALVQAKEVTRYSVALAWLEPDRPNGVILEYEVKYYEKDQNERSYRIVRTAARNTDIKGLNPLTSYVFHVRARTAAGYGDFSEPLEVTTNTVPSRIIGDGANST

[5] = target: T3, recombinant murine EphB4-Fc fusion …; experiment: SET (MSD), solution equilibrium titration; n = 1
Procedure: Two independent measurements were performed on human and murine EphB4-Fc.

| IC50 (read off the curve) [1] | EC50 [2] | IC50 [3] | binding result [4] | Kd [5] | Binder |
| --- | --- | --- | --- | --- | --- |
| ~4 µg/mL | > 40 nM | 4.7 nM |  |  | MOR03641 Fab (Fab, V domains shown, Monomeric HuCAL Fab (VH1A, kappa1), purified, MH-tagged; also called 3541 [sic]) VH: QVQLVQSGAEVKKPGSSVKVSCKASGGTFSTYAISWVRQAPGQGLEWMGRIIPIFGTANYAQKFQGRVTITADESTSTAYMELSSLRSEDTAVYYCARSSYTILTTYYNYNAMDNWGQGTLVTVSS VL: DIQMTQSPSSLSASVGDRVTITCRASQNINNFLNWYQQKPGKAPKLLIYGSSILQSGVPSRFSGSGSGTDFTLTISSLQPEDFAVYYCHQVSDTSDTFGQGTKVEIKR |
|  |  |  | no binding | 6.63 nM | MOR03640 Fab (Fab, V domains shown, Monomeric HuCAL Fab, purified, MH-tagged) VH: QVQLVESGGGLVQPGGSLRLSCAASGFTFNNSWMSWVRQAPGKGLEWVSNITSSSSMTHYADSVKGRFTISRDNSKNTLYLQMNSLRAEDTAVYYCARKGMSFYNNKYAKSMFDLWGQGTLVTVSS VL: DIELTQPPSVSVAPGQTARISCSGDNLGKKYVHWYQQKPGQAPVLVIYYDSKRPSGIPERFSGSNSGNTATLTISGTQAEDEADYYCSAWTTTMMHIVFGGGTKLTVLG |

From patent publication US20090137002A1 (published 2009)
